In patent US20210277109A1 (SYSTIMMUNE, published 2021):

B1: 324C7 (antibody, V domains shown)
VH: QSVEESGGRLVTPGTPLTLTCTVSGFSLSGAGVSWVRQAPGKGLEWIGYIDSGATTYYASWAKGRFTISKASTTVDLKIASPTTEDTATYFCARGYYGMDPWGQGTLVTVSS
VL: DIVMTQTPASVEVAVGGTVTIKCQASQNIGSDLAWYQQKPGQPPKLLIYTTSNLASGVPSRFKGSGSGTGFTLTISDLECADAASYCCQGGYFSGRNIYGNAFGGGTEVVVK
notes: chimeric counterpart m4; also called rabbit IgG of BCC well 324C7
B2: 323H7 (antibody, V domains shown)
VH: QEQLKESGGGLVTPGGTLTLTCTASGFTISRYHMTWVRQAPGKGLEWIGHIYVNNDDTDYASWAKGRFTISKTSTTVDLKITSPTTEDTATYFCARLDVGGGGAYIGDIWGQGTLVTVSS
VL: QAVVTQTPSSVSAAVGGTVTISCQSSQSVYNNNDLAWYQQKPGQPPKLLIYYASTLASGVSSRFKGSGSGTQFTLAISDLECDDSATYYCAGGYDTDGLDTFAFGGGTEVEVK
notes: chimeric counterpart m3; also called rabbit IgG of BCC well 323H7
B3: 330F11 (antibody, V domains shown)
VH: QSVEESGGRLVTPGTPLTLTCTVSGFSLNNYWMSWVRQAPGEGLEWIGTISSGAYTWFATWATGRFTISKTSTTVDLSITSPTTEDTATYFCARYSSTTDWTYFNIWGPGTLVTVSS
VL: DVVMTQTPASVEAAVGGTVTIKCQASQSINNYLAWYQQKPGQPPKLLIYRASTLESGVPSRFKGSGSGTQFTLTISDLECADAATYYCQSYNGVGRTAFGGGTEVEFK
notes: chimeric counterpart m9; also called rabbit IgG of BCC well 330F11
B4: 338H4 (antibody, V domains shown)
VH: QSVEESGGRLVTPGTPLTLTCTVSGFSLSSYAMSWVRQAPGRGLEWIGIIYASGSTYYASWAKGRFTISKTSTTVDLKITSPTTEDTATYFCARIYDGMDLWGPGTLVTVSS
VL: DIVMTQTPASVSAAVGGTVTINCQASQNIYSYLSWYQQKPGQPPKRLIYLASTLASGVPSRFKSSGSGTEYTLTISDLECDDAATYYCQSNYNGNYGFGGGTEVEVK
notes: chimeric counterpart m8; also called rabbit IgG of BCC well 338H4
B5: 324C6 (antibody, V domains shown)
VH: QSLEESGGRLVTPGTPLTLTCTASGFSLSRYYMTWVRQAPGKGLEWIGTIYTSGSTWYASWTKGRFTISKTSTTVDLKITSPTTEDTATYFCARSYYGGDKTGLGIWGPGTLVTVSS
VL: DVVMTQTPASVEAAVGGTVTIKCQASQSIDSWLSWYQQKPGQPPKLLIYQASTLASGVSSRFKGSGSGTEFTLTISDLECADAATYYCQCAYGVSGTSSYLYTFGGGTEVEVK
notes: chimeric counterpart m7; also called rabbit IgG of BCC well 324C6
B6: 338H4 chimeric rabbit/human IgG antibody (antibody, V domains shown)
VH: B4 VH
VL: DIVMTQTPASVSAAVGGTVTINCQASQNIYSYLSWYQQKPGQPPKRLIYLASTLASGVPSRFKSSGSGTEYTLTISDLECDDAATYYCQSNYNGNYGFGGGTEVEVKR
notes: Rabbit variable regions on human gamma-1 and human kappa constant domains
B7: 330F11 humanized antibody (antibody, human IgG1, kappa, V domains shown)
VH: EVQLVESGGGLVQPGGSLRLSCAASGFSLNNYWMSWVRQAPGKGLEWIGTISSGAYTWFATWATGRFTISRDNSKNTLYLQMNSLRAEDTAVYYCARYSSTTDWTYFNIWGQGTLVTVSS
VL: DIQMTQSPSTLSASVGDRVTITCQASQSINNYLAWYQQKPGKAPKLLIYRASTLESGVPSRFSGSGSGTEFTLTISSLQPDDFATYYCQSYNGVGRTAFGGGTKVEIKR
notes: Human gamma-1 and human kappa constant domains
B8: 226E12 humanized antibody (antibody, human IgG1, kappa, V domains shown)
VH: EVQLLESGGGLVQPGGSLRLSCAASGFSLSNYYMSWVRQAPGKGLEWIGAINADSDNTWYPSWVKGRFTISRDNSKNTLYLQMNSLRAEDTAVYYCARSVSNNFAEYNIWGQGTLVTVSS
VL: DIQMTQSPSSLSASVGDRVTITCQASQRIYSYLAWYQQKPGKVPKLLIYRASTLASGVPSRFSGSGSGTDFTLTISSLQPEDVATYYCQQGASMVDVENMFGGGTKVEIKR
notes: as for B7
B9: 338H4 humanized antibody (antibody, human IgG1, kappa, V domains shown)
VH: EVQLVESGGGLVQPGGSLRLSCTASGFSLSSYAMSWVRQAPGRGLEWIGIIYASGSTYYASSAKGRFTISKDNTKNTVDLQMNSLRAEDTAVYYCARIYDGMDLWGQGTLVTVSS
VL: DIQMTQSPSSLSASVGDRVTINCQASQNIYSYLSWYQQKPGKVPKRLIYLASTLASGVPSRFSGSGSGTDYTLTISSLQPEDVATYYCQSNYNGNYGFGGGTKVEIKR
notes: as for B7
B10: 323H7 humanized antibody (antibody, human IgG1, kappa, V domains shown)
VH: EVQLLESGGGLVQPGGSLRLSCAASGFTISRYHMTWVRQAPGKGLEWIGHIYVNNDDTDYASSAKGRFTISRDNSKNTLYLQMNSLRAEDTATYFCARLDVGGGGAYIGDIWGQGTLVTVSS
VL: DIQMTQSPSSLSASVGDRVTITCQSSQSVYNNNDLAWYQQKPGKVPKLLIYYASTLASGVPSRFSGSGSGTDFTLTISSLQPEDVATYYCAGGYDTDGLDTFAFGGGTKVEIKR
notes: as for B7
B11: 324E2 humanized antibody (antibody, human IgG1, kappa, V domains shown)
VH: QSVEESGGGLVQPGGSLRLSCTASGFSLSNNAITWVRQAPGKGLEYIGIISSSGTTYYASSAKGRFTISKDTSKNTVDLQMNSLRAEDTAVYYCAGAFSVWGQGTLVTVSS
VL: DIQMTQSPSSLSASVGDRVTITCQSSQSVNNNDLAWYQQKPGKAPKRLIYWASKLASGVPSRFSGSGSGTEFTLTISNLQPEDFATYYCAGGYSGNIYGFGGGTKVEIKR
notes: as for B7
B12: 324C6 humanized antibody (antibody, human IgG1, kappa, V domains shown)
VH: QSLVESGGGLVQPGGSLRLSCTASGFSLSRYYMTWVRQAPGKGLEWIGTIYTSGSTWYASWTKGRFTISKDNTKNTVDLQMNSLRAEDTAVYYCARSYYGGDKTGLGIWGQGTLVTVSS
VL: DIQMTQSPSTLSASVGDRVTITCQASQSIDSWLSWYQQKPGKAPKLLIYQASTLASGVPSRFSGSGSGTEFTLTISSLQPDDFATYYCQSAYGVSGTSSYLYTFGGGTKVEIKR
notes: as for B7
B13: 323D10 humanized antibody (antibody, human IgG1, kappa, V domains shown)
VH: EVQLVESGGGLVQPGGSLRLSCTASGFSLSRNAMNWVRQAPGKGLEYIGYISTSGTTFYANSVKGRFTISKDNTKNTVDLQMNSLRAEDTAVYYCARDYNYAMDIWGQGTLVTVSS
VL: AIDLTQSPSTLSASVGGTITINCQASESISSWLAWYQQKPGKAPKLLIYETSKLASGVPSRFSGSGSGTEFTLTISSLQPDDFATYYCQSYYRINNIGYDNAFGGGTKVEIKR
notes: as for B7
B14: 324E2 chimeric rabbit/human IgG antibody (antibody, V domains shown)
VH: QSVEESGGRLVTPGTPLTLTCTVSGFSLSNNAITWVRQAPGKGLEYIGIISSSGTTYYASWAKGRFTISKTSSTTVDLKMTSLTTEDTATYFCAGAFSVWGPGTLVTVSS
VL: AQVLTQTPSSVSAAVGGTVTINCQSSQSVNNNDLAWFQQKPGQPPKRLIYWASKLASGVPSRFKGSGSGTQFILTISDLECDDAATYYCAGGYSGNIYGFGGGTEVEVKR
notes: as for B6
B15: 323D10 chimeric rabbit/human IgG antibody (antibody, V domains shown)
VH: QSVEESGGRLVTPGTPLTLTCTVSGFSLSRNAMNWVRQAPGKGLEYIGYISTSGTTFYANWVKGRFTISKTSTTVDLKMTSLTTEDTATYFCARDYNYAMDIWGQGTLVTVSS
VL: AIDLTQTPASVEAAVGGTITINCQASESISSWLAWYQQKPGQRPKLLIYETSKLASGVPPRFSGSGSGTQFTLTISGVQCDDAATYYCQSYYRINNIGYDNAFGGGTEVEFKR
notes: as for B6
B16: 324C6 chimeric rabbit/human IgG antibody (antibody, V domains shown)
VH: B5 VH
VL: DVVMTQTPASVEAAVGGTVTIKCQASQSIDSWLSWYQQKPGQPPKLLIYQASTLASGVSSRFKGSGSGTEFTLTISDLECADAATYYCQCAYGVSGTSSYLYTFGGGTEVEVKR
notes: as for B6

Molecular target: T1, recombinant human ROR1 extracellular domain protein (human, UniProt Q01973 30-406)
T1 construct: extracellular domain; Analyte in solution in the Octet assay; also called human ROR1 ECD
Assay: ELISA, direct coat; BCC supernatant

T1 sequence (Q01973 30-406): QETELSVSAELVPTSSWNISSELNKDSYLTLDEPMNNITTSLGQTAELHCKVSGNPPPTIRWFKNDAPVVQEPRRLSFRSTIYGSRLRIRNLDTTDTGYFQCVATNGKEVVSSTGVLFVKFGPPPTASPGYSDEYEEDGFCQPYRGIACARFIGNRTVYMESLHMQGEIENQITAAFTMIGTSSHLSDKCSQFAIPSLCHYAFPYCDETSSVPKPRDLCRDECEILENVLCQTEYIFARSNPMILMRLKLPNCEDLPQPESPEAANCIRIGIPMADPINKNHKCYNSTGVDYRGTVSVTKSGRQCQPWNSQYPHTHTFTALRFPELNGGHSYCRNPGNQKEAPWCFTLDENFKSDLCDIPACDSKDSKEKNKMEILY

| ELISA OD450 | Binder |
| --- | --- |
| 2.74 OD450 | B1 |
| 1.82 OD450 | B2 |
| 0.98 OD450 | B3 |
| 4 OD450 | B4 |

Molecular target: T2, human ROR1 'Ig-Frizzled domain' (human, UniProt Q01973)
T2 construct: used plain or biotinylated
Assay: ELISA, direct coat; BCC supernatant

T2 sequence (Q01973 30-305 limits assumed): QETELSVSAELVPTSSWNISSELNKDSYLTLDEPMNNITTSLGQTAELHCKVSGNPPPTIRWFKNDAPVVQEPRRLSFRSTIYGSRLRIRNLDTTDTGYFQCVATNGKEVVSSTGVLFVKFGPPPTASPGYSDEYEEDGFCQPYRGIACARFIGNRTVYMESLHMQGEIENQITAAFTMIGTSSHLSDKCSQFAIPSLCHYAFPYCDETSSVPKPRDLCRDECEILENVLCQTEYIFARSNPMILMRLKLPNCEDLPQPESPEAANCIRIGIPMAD

| ELISA OD450 | Binder |
| --- | --- |
| 2.46 OD450 | B1 |
| 1.67 OD450 | B2 |
| 0.28 OD450 | B3 |
| 2.77 OD450 | B4 |

Molecular target: mouse ROR1 (serum titer ELISA antigen) (mouse, UniProt Q9Z139 30-403, limits assumed)
Assay: ELISA, direct coat; BCC supernatant

Sequence of mouse ROR1 (serum titer ELISA antigen) (Q9Z139 30-403 limits assumed): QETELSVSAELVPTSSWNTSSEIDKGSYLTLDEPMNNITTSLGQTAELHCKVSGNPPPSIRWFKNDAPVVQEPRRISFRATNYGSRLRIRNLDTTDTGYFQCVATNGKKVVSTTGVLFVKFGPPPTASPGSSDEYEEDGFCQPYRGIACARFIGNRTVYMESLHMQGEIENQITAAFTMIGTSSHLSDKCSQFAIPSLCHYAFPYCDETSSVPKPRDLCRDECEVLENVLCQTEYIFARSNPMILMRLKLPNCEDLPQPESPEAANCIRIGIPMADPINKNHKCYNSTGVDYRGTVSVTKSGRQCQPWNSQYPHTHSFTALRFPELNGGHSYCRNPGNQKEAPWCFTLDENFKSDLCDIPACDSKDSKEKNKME

| ELISA OD450 | binding result | Binder |
| --- | --- | --- |
| 0.21 OD450 | no binding | B1 |
| 0.2 OD450 | no binding | B2 |
| 4 OD450 | – | B3 |
| 4 OD450 | – | B4 |

Molecular target: T3, human ROR1 'Frizzled-Kringle domain' (human, UniProt Q01973)
T3 construct: used plain or biotinylated
Assay: ELISA, direct coat; BCC supernatant

T3 sequence (Q01973 165-406 limits assumed): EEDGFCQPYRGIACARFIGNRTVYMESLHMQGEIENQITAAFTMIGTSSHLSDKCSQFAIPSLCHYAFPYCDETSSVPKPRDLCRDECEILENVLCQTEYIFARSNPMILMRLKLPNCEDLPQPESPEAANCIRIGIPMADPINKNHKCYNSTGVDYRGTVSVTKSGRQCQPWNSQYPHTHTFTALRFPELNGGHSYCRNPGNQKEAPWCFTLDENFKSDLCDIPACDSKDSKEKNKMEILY

| ELISA OD450 | Binder |
| --- | --- |
| 0.13 OD450 | B1 |
| 0.16 OD450 | B2 |
| 1.98 OD450 | B3 |
| 3.01 OD450 | B4 |

Molecular target: T4, Human ROR2 (human, UniProt Q01974)
Assay: ELISA, direct coat; BCC supernatant

T4 sequence (Q01974 34-403 limits assumed): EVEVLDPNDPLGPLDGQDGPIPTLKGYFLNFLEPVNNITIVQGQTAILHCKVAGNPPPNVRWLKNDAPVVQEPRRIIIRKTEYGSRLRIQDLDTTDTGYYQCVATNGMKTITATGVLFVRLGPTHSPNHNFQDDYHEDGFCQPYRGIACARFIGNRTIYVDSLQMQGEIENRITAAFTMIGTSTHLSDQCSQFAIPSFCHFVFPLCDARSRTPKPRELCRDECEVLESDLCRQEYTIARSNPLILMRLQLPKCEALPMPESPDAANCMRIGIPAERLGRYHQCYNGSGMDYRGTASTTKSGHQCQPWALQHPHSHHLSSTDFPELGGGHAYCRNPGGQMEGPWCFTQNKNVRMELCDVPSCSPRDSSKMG

| ELISA OD450 | Binder |
| --- | --- |
| 0.18 OD450 | B1 |
| 0.18 OD450 | B2 |
| 0.25 OD450 | B3 |
| 0.17 OD450 | B5 |
| 0.17 OD450 | B4 |

Molecular target: T1, recombinant human ROR1 extracellular …
Assay: Octet, mono-valent binding to human ROR1
From the text: The heavy and light chain expression plasmids generated from each well were transiently co-transfected to produce rabbit/human chimeric antibodies. Recombinant antibody supernatants were confirmed to contain anti-ROR1 antibodies using bio-layer interferometry analysis on a ForteBio Octet Red 96 instrument. Anti-human Fc biosensors (Pall ForteBio) were used to capture antibodies in the supernatants. Association to ROR1 was observed by real-time interferometry by placing the biosensors in wells containing recombinant human ROR1 extracellular domain protein. Dissociation was measured after transfer of the biosensors into wells containing 10× kinetics buffer (Pall ForteBio). The software provided by the manufacturer was used to analyze the interferometry data.

| koff | Binder |
| --- | --- |
| 1.17e-08 s⁻¹ | B6 |

Molecular target: T1, recombinant human ROR1 extracellular …
Assay: Octet, monovalent binding to human ROR1

| koff | Binder |
| --- | --- |
| 0.0297 s⁻¹ | B7 |
| 0.0415 s⁻¹ | B8 |
| 0.00238 s⁻¹ | B9 |
| 0.0007 s⁻¹ | B10 |
| 0.0061 s⁻¹ | B11 |
| 0.0403 s⁻¹ | B12 |
| 0.00424 s⁻¹ | B13 |

Molecular target: T2, human ROR1 'Ig-Frizzled domain'
Assay: ELISA, biotinylated antigen on avidin plate; BCC supernatant

| ELISA OD450 | Binder |
| --- | --- |
| 2.67 OD450 | B1 |
| 1.78 OD450 | B2 |
| 0.15 OD450 | B3 |
| 0.22 OD450 | B4 |

Molecular target: T3, human ROR1 'Frizzled-Kringle domain'
Assay: as above

| ELISA OD450 | Binder |
| --- | --- |
| 0.13 OD450 | B1 |
| 0.16 OD450 | B2 |
| 1.71 OD450 | B3 |
| 1.8 OD450 | B4 |

Molecular target: T5, Human ROR1-CHO cells (human, UniProt Q01973)
T5 construct: expressed on the surface of CHO cells; also called human ROR1 on CHO cells
Assay: FACS; BCC supernatant

T5 sequence (Q01973 30-937 limits assumed): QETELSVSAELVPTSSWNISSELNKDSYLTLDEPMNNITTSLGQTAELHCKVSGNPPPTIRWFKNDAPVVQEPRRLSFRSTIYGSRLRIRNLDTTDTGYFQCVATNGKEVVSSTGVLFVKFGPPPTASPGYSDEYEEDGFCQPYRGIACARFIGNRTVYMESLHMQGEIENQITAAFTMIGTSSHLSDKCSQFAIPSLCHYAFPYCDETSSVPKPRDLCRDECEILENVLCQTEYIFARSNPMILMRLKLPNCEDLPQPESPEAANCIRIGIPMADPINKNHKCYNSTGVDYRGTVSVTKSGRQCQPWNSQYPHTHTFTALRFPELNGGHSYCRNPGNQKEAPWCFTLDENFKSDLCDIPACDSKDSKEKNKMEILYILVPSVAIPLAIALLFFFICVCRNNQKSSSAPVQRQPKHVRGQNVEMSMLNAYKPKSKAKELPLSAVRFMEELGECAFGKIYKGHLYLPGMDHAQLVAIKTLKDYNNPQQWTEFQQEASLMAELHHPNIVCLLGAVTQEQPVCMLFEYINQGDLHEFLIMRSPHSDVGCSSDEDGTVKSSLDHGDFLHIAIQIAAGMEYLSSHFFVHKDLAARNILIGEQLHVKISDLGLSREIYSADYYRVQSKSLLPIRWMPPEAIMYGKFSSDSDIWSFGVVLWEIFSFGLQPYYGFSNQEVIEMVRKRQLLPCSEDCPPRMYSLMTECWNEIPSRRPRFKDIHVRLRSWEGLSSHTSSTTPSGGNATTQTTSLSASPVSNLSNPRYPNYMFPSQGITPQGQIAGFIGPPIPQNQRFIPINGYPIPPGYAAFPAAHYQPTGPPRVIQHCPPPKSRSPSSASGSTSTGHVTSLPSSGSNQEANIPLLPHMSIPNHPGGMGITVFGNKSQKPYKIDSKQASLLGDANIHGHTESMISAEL

| FACS MFI | Binder |
| --- | --- |
| 190 MFI | B1 |
| 90 MFI | B2 |
| 5 MFI | B3 |

Molecular target: T3, human ROR1 'Frizzled-Kringle domain'
Assay: Octet

| binding result | Binder |
| --- | --- |
| no binding | B14 |
| no binding | B15 |

Molecular target: T4, Human ROR2
Assay: Octet

| binding result | Binder |
| --- | --- |
| no binding | B14 |
| no binding | B15 |
| no binding | B16 |
| no binding | B6 |

Molecular target: T1, recombinant human ROR1 extracellular …
Assay: Octet, bi-valent binding to human ROR1

| koff | Binder |
| --- | --- |
| 0.00572 s⁻¹ | B14 |
| 0.00961 s⁻¹ | B15 |
